From patent publication US20250213684A1 (Novartis, published 2025)
Several values for one entry are separate records, joined by “and”; a condition that tells them apart may be missing. Identical values can stand only once.

What was measured:
[1] = target: T1, TIM-3 (antigen; species and construct not stated for the assay) (UniProt Q8TDQ0 22-202, limits assumed); assay: SPR (Biacore), run of May 30, 2014
[2] = target: T2, human TIM-3 expressed on cells (human, UniProt Q8TDQ0 22-301); assay: flow cytometry on cells expressing human TIM-3
T2 construct: also called huTIM-3; hTIM-3

huTIM-3/his = target: T3, huTIM-3/his (human, UniProt Q8TDQ0 22-202); assay: Biacore, 2nd antibody injection; 1st antibody (competitor) ABTIM3-hum21
T3 construct: also called hTIM-3/his antigen

[3] = target: T2, human TIM-3 expressed on cells; assay: flow cytometry competition on 300.19 hTIM-3 cells against PE-labelled ABTIM3-hum21
[4] = target: T1, TIM-3 (antigen; species and construct …); assay: SPR (Biacore), run of May 1, 2014
[5] = target: T1, TIM-3 (antigen; species and construct …); assay: SPR (Biacore), run of Apr. 29, 2014
[6] = target: T1, TIM-3 (antigen; species and construct …); assay: SPR (Biacore), run of Apr. 7, 2014
[7] = target: T1, TIM-3 (antigen; species and construct …); assay: FACS competition binding against the parent murine ABTIM3; cells not named on the sheet
cynoTIM-3/Fc [8] = target: T4, cynoTIM-3/Fc (cynomolgus monkey, UniProt A0A2K5U3G7 22-195); assay: SPR (Biacore), run 2
T4 sequence: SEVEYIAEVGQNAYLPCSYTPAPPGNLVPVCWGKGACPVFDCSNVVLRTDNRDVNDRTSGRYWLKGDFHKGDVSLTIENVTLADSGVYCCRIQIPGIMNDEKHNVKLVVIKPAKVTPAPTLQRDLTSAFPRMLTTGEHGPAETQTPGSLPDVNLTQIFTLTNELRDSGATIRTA

ratTIM-3/Fc = target: T5, ratTIM-3/Fc (rat, UniProt P0C0K5 22-194, limits assumed); assay: SPR (Biacore), run 2
T5 construct: also called rat TIM-3/Fc protein
T5 sequence (looked up): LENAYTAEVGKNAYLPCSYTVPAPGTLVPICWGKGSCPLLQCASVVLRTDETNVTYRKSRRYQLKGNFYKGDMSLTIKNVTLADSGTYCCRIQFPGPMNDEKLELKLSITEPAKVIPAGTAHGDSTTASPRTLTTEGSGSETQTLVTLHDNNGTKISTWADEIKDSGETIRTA

cynoTIM-3/Fc [9] = target: T4, cynoTIM-3/Fc; assay: SPR (Biacore), run 3
cynoTIM-3/Fc [10] = target: T4, cynoTIM-3/Fc; assay: SPR (Biacore), mean KD
cynoTIM-3/Fc [11] = target: T4, cynoTIM-3/Fc; assay: SPR (Biacore), run 1; run 1 of three; cynoTIM-3/Fc

B1: ABTIM3-hum10 (antibody, human IgG4 S228P, kappa, V domains shown)
VH: EVQLVQSGAEVKKPGESLKISCKGSGYTFTSYNMHWVRQMPGKGLEWMGDIYPGNGDTSYNQKFKGQVTISADKSISTVYLQWSSLKASDTAMYYCARVGGAFPMDYWGQGTTVTVSS
VL: EIVLTQSPATLSLSPGERATLSCRASESVEYYGTSLMQWYQQKPGQAPRLLIYAASNVESGIPARFSGSGSGTDFTLTISSLEPEDIAVYFCQQSRKDPSTFGGGTKVEIKR
notes: Humanized
B1 was tested, and the Kd [1] was 107 pM.

B2: ABTIM3-hum12 (antibody, human IgG4 S228P, kappa, V domains shown)
VH: EVQLVQSGAEVKKPGESLKISCKGSGYTFTSYNMHWVRQMPGKGLEWMGDIYPGNGDTSYNQKFKGQVTISADKSISTVYLQWSSLKASDTAMYYCARVGGAFPMDYWGQGTTVTVSS
VL: AIQLTQSPSSLSASVGDRVTITCRASESVEYYGTSLMQWYQQKPGKAPKLLIYAASNVESGVPSRFSGSGSGTDFTLTISSLQPEDFATYFCQQSRKDPSTFGGGTKVEIKR
notes: Humanized
For B2, the Kd [1] was 355 pM.

B3: ABTIM3-hum21 (antibody, human IgG1, kappa)
heavy: not shown
light: DIVLTQSPDSLAVSLGERATINCRASESVEYYGTSLMQWYQQKPGQPPKLLIYAASNVESGVPDRFSGSGSGTDFTLTISSLQAEDVAVYYCQQSRKDPSTFGGGTKVEIKRTVAAPSVFIFPPSDEQLKSGTASVVCLLNNFYPREAKVQWKVDNALQSGNSQESVTEQDSKDSTYSLSSTLTLSKADYEKHKVYACEVTHQGLSSPVTKSFNRGEC
notes: Humanized
For B3, the Kd [2] was 917 pM, the “change in RU” value (huTIM-3/his) was 6.6 RU and the “IC50 (read off the curve)” value [3] was ~0.4 µg/mL.

B4: ABTIM3-hum02 (antibody, human IgG4 S228P, kappa, V domains shown)
VH: QVQLVQSGAEVKKPGASVKVSCKASGYTFTSYNMHWVRQAPGQGLEWIGDIYPGSGDTSYNQKFKGRATMTADKSTSTVYMELSSLRSEDTAVYYCARVGGAFPMDYWGQGTLVTVSS
VL: DIVLTQSPDSLAVSLGERATINCRASESVEYYGTSLMQWYQQKPGQPPKLLIYAASNVESGVPDRFSGSGSGTDFTLTISSLQAEDVAVYYCQQSRKDPSTFGGGTKVEIKR
notes: Humanized
Work on B4 yielded a Kd [4] of 269 pM, a Kd [1] of 174 pM and a Kd [5] of 308 pM.

B5: ABTIM3-hum09 (antibody, human IgG4 S228P, kappa, V domains shown)
VH: QVQLVQSGAEVKKPGSSVKVSCKASGYTFTSYNMHWVRQAPGQGLEWMGDIYPGNGDTSYNQKFKGRVTITADKSTSTVYMELSSLRSEDTAVYYCARVGGAFPMDYWGQGTTVTVSS
VL: EIVLTQSPATLSLSPGERATLSCRASESVEYYGTSLMQWYQQKPGQAPRLLIYAASNVESGIPARFSGSGSGTDFTLTISSLEPEDIAVYFCQQSRKDPSTFGGGTKVEIKR
notes: Humanized
B5 showed a Kd [1] of 161 pM.

B6: ABTIM3-hum07 (antibody, human IgG4 S228P, kappa, V domains shown)
VH: QVQLVQSGAEVKKPGASVKVSCKASGYTFTSYNMHWIRQAPGQGLEWIGDIYPGNGDTSYNQKFKGRATLTADKSTSTVYMELSSLRSEDTAVYYCARVGGAFPMDYWGQGTLVTVSS
VL: DIVLTQSPDSLAVSLGERATINCRASESVEYYGTSLMQWYQQKPGQPPKLLIYAASNVESGVPDRFSGSGSGTDFTLTISSLQAEDVAVYYCQQSRKDPSTFGGGTKVEIKR
notes: Humanized
B6 gave a Kd [4] of 199 pM, a Kd [6] of 135 pM and a Kd [1] of 196 pM. For the same binder, the “IC50 (read off the curve)” value [7] was ~0.2 µg/mL.

B7: ABTIM3-hum03 (antibody, human IgG4 S228P, kappa)
heavy: not shown
light: DIVLTQSPDSLAVSLGERATINCRASESVEYYGTSLMQWYQQKPGQPPKLLIYAASNVESGVPDRFSGSGSGTDFTLTISSLQAEDVAVYYCQQSRKDPSTFGGGTKVEIKRTVAAPSVFIFPPSDEQLKSGTASVVCLLNNFYPREAKVQWKVDNALQSGNSQESVTEQDSKDSTYSLSSTLTLSKADYEKHKVYACEVTHQGLSSPVTKSFNRGEC
notes: Humanized; Immobilized on Protein G beads and cross-linked with DSS in the HDx-MS experiment
With B7 the Kd (cynoTIM-3/Fc [8]) was 3890 pM, the Kd (ratTIM-3/Fc) was 51000 pM and the Kd (cynoTIM-3/Fc [9]) was 3080 pM. The Kd (cynoTIM-3/Fc [10]) was 2670 pM and the Kd (cynoTIM-3/Fc [11]) was 1040 pM.

B8: ABTIM3-hum08 (antibody, human IgG4 S228P, kappa, V domains shown)
VH: QVQLVQSGAEVKKPGASVKVSCKASGYTFTSYNMHWVRQAPGQGLEWIGDIYPGNGDTSYNQKFKGRATMTADKSTSTVYMELSSLRSEDTAVYYCARVGGAFPMDYWGQGTLVTVSS
VL: DIVLTQSPDSLAVSLGERATINCRASESVEYYGTSLMQWYQQKPGQPPKLLIYAASNVESGVPDRFSGSGSGTDFTLTISSLQAEDVAVYFCQQSRKDPSTFGGGTKVEIKR
notes: Humanized
For B8, the Kd [4] was 309 pM, the Kd [6] was 123 pM and the Kd [1] was 175 pM. For the same binder, the “IC50 (read off the curve)” value [7] was ~0.2 µg/mL.

B9: ABTIM3-hum04 (antibody, human IgG4 S228P, kappa, V domains shown)
VH: QVQLVQSGAEVKKPGASVKVSCKASGYTFTSYNMHWIRQAPGQGLEWIGDIYPGNGDTSYNQKFKGRATLTADKSTSTVYMELSSLRSEDTAVYYCARVGGAFPMDYWGQGTLVTVSS
VL: DIVLTQSPDSLAVSLGERATINCRASESVEYYGTSLMQWYQQKPGQPPKLLIYAASNVESGVPDRFSGSGSGTDFTLTISSLQAEDVAVYFCQQSRKDPSTFGGGTKVEIKR
notes: Humanized
B9 was tested, and the Kd [6] was 216 pM, the Kd [1] was 172 pM and the “IC50 (read off the curve)” value [7] was ~0.2 µg/mL.

B10: ABTIM3-hum05 (antibody, human IgG4 S228P, kappa, V domains shown)
VH: QVQLVQSGAEVKKPGASVKVSCKASGYTFTSYNMHWIRQAPGQGLEWIGDIYPGSGDTSYNQKFKGRATLTADKSTSTVYMELSSLRSEDTAVYYCARVGGAFPMDYWGQGTLVTVSS
VL: DIVLTQSPDSLAVSLGERATINCRASESVEYYGTSLMQWYQQKPGQPPKLLIYAASNVESGVPDRFSGSGSGTDFTLTISSLQAEDVAVYFCQQSRKDPSTFGGGTKVEIKR
notes: Humanized
B10 gave a Kd [4] of 279 pM, a Kd [1] of 332 pM and a Kd [5] of 313 pM.

B11: ABTIM3-hum06 (antibody, human IgG4 S228P, kappa, V domains shown)
VH: QVQLVQSGAEVKKPGASVKVSCKASGYTFTSYNMHWIRQAPGQGLEWIGDIYPGQGDTSYNQKFKGRATLTADKSTSTVYMELSSLRSEDTAVYYCARVGGAFPMDYWGQGTLVTVSS
VL: DIVLTQSPDSLAVSLGERATINCRASESVEYYGTSLMQWYQQKPGQPPKLLIYAASNVESGVPDRFSGSGSGTDFTLTISSLQAEDVAVYFCQQSRKDPSTFGGGTKVEIKR
notes: Humanized
B11 gave a Kd [4] of 214 pM, a Kd [1] of 364 pM and a Kd [5] of 498 pM.

B12: ABTIM3-hum01 (antibody, human IgG4 S228P, kappa, V domains shown)
VH: QVQLVQSGAEVKKPGASVKVSCKASGYTFTSYNMHWVRQAPGQGLEWIGDIYPGNGDTSYNQKFKGRATMTADKSTSTVYMELSSLRSEDTAVYYCARVGGAFPMDYWGQGTLVTVSS
VL: DIVLTQSPDSLAVSLGERATINCRASESVEYYGTSLMQWYQQKPGQPPKLLIYAASNVESGVPDRFSGSGSGTDFTLTISSLQAEDVAVYYCQQSRKDPSTFGGGTKVEIKR
notes: Humanized
For B12, the Kd [4] was 114 pM, the Kd [6] was 103 pM and the Kd [1] was 230 pM and 193 pM. For the same binder, the “IC50 (read off the curve)” value [7] was ~0.2 µg/mL.
